From patent US20100120688A1 (University of Pennsylvania, published 2010) come the findings set out here.

The target in assay [1] is TNF receptor (immobilized, control). Description: SPR (Biacore 3000), control peptide injected over immobilized TNF receptor (control).
Assay [2] addresses T1, ErbB3 extracellular domain (recombinant, soluble) (UniProt P21860 20-643, limits assumed).
T1 construct: extracellular domain; also called ectodomain of erbB3
Description: SPR (Biacore 3000), control peptide injected over immobilized receptor extracellular domain. On the technique in general: SPR reads the build-up and loss of mass on a sensor chip optically.

Assay [3] deals with T2, ErbB1 extracellular domain (recombinant, soluble) (UniProt P00533 25-645, limits assumed).
T2 construct: extracellular domain; also called erbB1 ectodomain; EGFr
Described as above.

The target of assay [4] is T3, ErbB2 extracellular domain (recombinant) (UniProt P04626 23-652, limits assumed).
T3 construct: extracellular domain; also called whole ectodomain of erbB2; full-size erbB2 ectodomain
The description is as above.

Assay [5] concerns the target TNF receptor (immobilized, control). Description: SPR (Biacore 3000), peptide injected over immobilized TNF receptor (control).
Assay [6] has as its target T1, ErbB3 extracellular domain …. Description: SPR (Biacore 3000), peptide injected over immobilized receptor extracellular domain.
The target of assay [7] is T2, ErbB1 extracellular domain …. The assay is described as above.
For assay [8], the target named is T3, ErbB2 extracellular domain (recombinant). The assay is described as above.
Assay [9] has as its target T2, ErbB1 extracellular domain …. Description: SPR; peptide 10 µM preinjected over immobilized ErbB1, then ErbB3 (300 nM) with HRGβ1 (5 µM); competitor: erbB3-HRGβ1.
Assay [10] has as its target T3, ErbB2 extracellular domain (recombinant). Description: SPR; peptide 10 µM preinjected over immobilized ErbB2, then ErbB3 (300 nM) with HRGβ1 (5 µM); competitor: erbB3-HRGβ1.
Assay [11] has as its target T1, ErbB3 extracellular domain …. Description: SPR; peptide 10 µM preinjected over immobilized ErbB3, then ErbB3 (300 nM) with HRGβ1 (5 µM); competitor: erbB3-HRGβ1.
Assay [12] addresses T4, erbB2-SbdIV (recombinantly expressed subdomain IV of erbB2, GST fusion protein) (UniProt P04626 511-652).
T4 construct: domain: subdomain IV; Expressed in E. coli BL-21 (DE3) and eluted from glutathione sepharose; no removal of GST is told; also called erbB2-Sbd W; not shown: glutathione S-transferase of the pGEX-5X-3 vector (N-terminal fusion partner)
Description: SPR (Biacore), peptide over immobilized erbB2-SbdIV.

The target of assay [13] is T2, ErbB1 extracellular domain …. Description: SPR (Biacore), global fit to the 1:1 Langmuir model; receptor taken as erbB1 by the KD of 0.21 µM.
Assay [14] deals with T5, erbB2 receptor, native full-length, on transfected 32D cells (32D-E2/E4 and 32D-E2/E3) (UniProt P04626 23-1255, limits assumed).
T5 construct: whole, on cells
Description: inhibition of heregulin-induced erbB2-erbB4 dimerization on 32D-E2/E4 cells, chemical cross-linking and immunoblot, dose dependence; 32D-E2/E4 cells; heregulin-induced erbB2-erbB4 heteromerization. (A western blot detects proteins with antibodies after separation by electrophoresis.)

As usually defined, the Kd is the free concentration of one partner at which half of the binding sites on the other are occupied at equilibrium, for simple one-to-one binding. The term koff denotes a measure of how fast the partners let go of each other. The kon is a measure of how fast the partners come together. For orientation: IC50 means the midpoint of a concentration-inhibition curve.

Bridge positions count the residues as written; N and C are the ends. Ends that are not written are not given here.

T1 sequence (P21860 20-643 limits assumed): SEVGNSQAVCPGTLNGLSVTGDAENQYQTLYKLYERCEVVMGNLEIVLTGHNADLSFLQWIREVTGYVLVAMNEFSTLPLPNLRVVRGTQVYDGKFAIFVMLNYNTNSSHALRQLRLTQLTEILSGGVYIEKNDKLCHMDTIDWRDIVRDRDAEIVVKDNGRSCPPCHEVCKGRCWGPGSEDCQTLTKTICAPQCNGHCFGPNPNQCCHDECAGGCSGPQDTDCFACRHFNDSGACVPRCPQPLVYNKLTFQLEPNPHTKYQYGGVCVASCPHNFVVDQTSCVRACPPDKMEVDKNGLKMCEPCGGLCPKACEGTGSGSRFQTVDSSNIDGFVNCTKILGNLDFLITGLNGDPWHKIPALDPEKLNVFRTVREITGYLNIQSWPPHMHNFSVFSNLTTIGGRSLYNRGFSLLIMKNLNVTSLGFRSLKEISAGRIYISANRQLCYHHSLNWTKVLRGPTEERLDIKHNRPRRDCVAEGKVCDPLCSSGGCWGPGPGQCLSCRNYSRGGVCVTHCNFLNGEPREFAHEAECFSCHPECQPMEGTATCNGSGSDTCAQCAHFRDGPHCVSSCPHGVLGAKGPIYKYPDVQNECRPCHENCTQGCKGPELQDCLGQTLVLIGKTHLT

B1: CD4-G (CD4 receptor-derived cyclic peptide, negative control) (peptide)
peptide: FCYIGEVEDQCY
modifications: disulfide 2-11 (inferred)
notes: also called control peptide
Take B1: the dissociation constant Kd in assay [1], in assay [2], in [3] and in [4] was > 1000 µM each time.

B2: B1-S22-ALG (derived from erbB1) (peptide)
peptide: YCLVWKYADAGCY
modifications: disulfide 2-12 (inferred)
As to B2, the dissociation constant (Kd) in assay [5] was > 1000 µM; in assay [6], 0.288 µM; in [7], 0.449 µM; in assay [8], 0.371 µM. Also, the “Percent Inhibition” value in assay [9] was 65.2%; in assay [10], 71.4%; in assay [11], 75.1%.

B3: B4-S22-AFD (derived from erbB4) (peptide)
peptide: YCFIFKYADPDCY
modifications: disulfide 2-12 (inferred)
As for B3, the dissociation constant (Kd) in [5] is > 1000 µM; in assay [6], 0.394 µM; in assay [7], 0.583 µM; in assay [8], 0.639 µM. Moreover, the “Percent Inhibition” value in [9] was 60.3%; in [10], 54.2%; in assay [11], 72.8%.

B4: B3-S22-APQ (derived from erbB3) (peptide)
peptide: YCPIYKYPDVQCY
modifications: disulfide 2-12 (inferred)
Regarding B4, the Kd in [5] was > 1000 µM; in [6] it was 1.07 µM; in assay [7], 0.472 µM; in assay [8] it was 0.549 µM. Moreover, the “Percent Inhibition” value in assay [9] amounted to 69%; in assay [10], 58.1%; in [11] it was 32.4%.

B5: B2-S22-APE (derived from erbB2) (peptide)
peptide: YCPIWKFPDEECY
modifications: disulfide 2-12 (inferred)
Take B5: the Kd in assay [12] is 1.89 µM; in [5], > 1000 µM; in [6] it was 1.4 µM; in assay [7] it was 0.21 µM; in [8], 1.53 µM. Besides, the dissociation rate constant (koff) in assay [12] was 0.00307 s⁻¹; in assay [13], 0.000685 s⁻¹. For the same molecule, the kon turned out to be 1620 M⁻¹ s⁻¹ in assay [12] and 3240 M⁻¹ s⁻¹ in assay [13]. The “Percent Inhibition” value came to 80.3% in assay [9], 51.1% in assay [10] and 42.7% in assay [11].

B6: B2-S22-AFA (derived from erbB2) (peptide)
peptide: YCFPDEEGACY
modifications: disulfide 2-10 (inferred)
Turning to B6, the Kd in [5] was > 1000 µM; in assay [6], 0.429 µM; in assay [7], 0.407 µM; in [8], 0.302 µM. The “Percent Inhibition” value amounted to 78.4% in assay [9], 82.5% in assay [10] and 61.7% in assay [11]. In assay [14], this molecule came in with a 50% inhibitory concentration (IC50) of 0.8 µM.
